Earlier results as cited in doi:10.1101/2023.06.05.542125.
Where two headings read alike, the source gives them in different places.

What was measured:
[1] = biological target: RNA polymerase elongation complex (Escherichia coli) (UniProt P0A7Z4)
[2] = biological target: RNA polymerase elongation complex (Escherichia coli) (UniProt P0A7Z4); remark: listed apart in the source

GreB, sequence (P30128 whole entry): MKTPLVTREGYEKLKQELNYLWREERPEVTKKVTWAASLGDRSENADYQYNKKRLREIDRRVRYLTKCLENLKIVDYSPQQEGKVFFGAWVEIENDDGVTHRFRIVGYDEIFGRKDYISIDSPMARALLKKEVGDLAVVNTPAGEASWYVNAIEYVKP
GreA, sequence (P0A6W5 whole entry): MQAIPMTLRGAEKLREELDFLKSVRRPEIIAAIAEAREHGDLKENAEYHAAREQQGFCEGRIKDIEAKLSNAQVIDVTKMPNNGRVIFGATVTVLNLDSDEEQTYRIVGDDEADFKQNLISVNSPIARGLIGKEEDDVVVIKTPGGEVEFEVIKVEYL

| Substance | Kd [1] [nM] | Kd [2] [nM] |
| --- | --- | --- |
| GreA (from UniProt P0A6W5) | 1000 |  |
| GreB (from UniProt P30128) |  | 100 |
